Laboratory results reported in the nanobody polyreactivity screen of Harvey et al. (2022).

Assay: yeast display, Sf9 membrane polyspecificity reagent, FACS + sequencing; frameworks hold sequencing errors
Outline: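 Galactose-induced (36–48 hours) yeast carrying a synthetic nanobody display library were exposed to 10% biotinylated, detergent-solubilized Sf9 membrane reagent at 4 °C for 1 hour. FACS followed streptavidin microbead enrichment, using low and high (top ~1%) gates for expression (anti-HA) and reagent binding (streptavidin). Colony PCR, MiSeq 2 × 250 sequencing and CDR-length filtering followed. Labels for polyreactivity reflect the gate of origin.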

For “QVQLVESGGGLVQAGGSLRLSCAASGSIFDGYAMGWYRQAPGKEREFVASIRFSTGRTYYADSVKGRFTISRDNAKNTVYLQMNSLKPEDTAVYYCNAPQGFVWRYSSWGPYDYWGQGTQVTVSS”, the “polyreactivity (PSR sort gate)” value was “high polyreactivity”.

In the case of “QVQLVESGGGLVQAGGSLRLSCAASGSIFDGYAMGWYRQAPGKETELVARITWSGGSTYYADSVKWRFTISRDNAKNTVYLQMNSLKPEDTAVYYCNVDQVHPTRGLDYWGQGTQVTVSS”, the “polyreactivity (PSR sort gate)” value is reported as “low polyreactivity”.

With “QVQLVESGGGLVQAGGSLRLSCAASGSIFDGYAMGWYRQAPWKERELVAAISYTGGRKYYADSVKGRFTISRDNAKNTVYLQMNSLKPEDTAVYYCAARYHLGRSPRYYRGQGTQVTVSS” the “polyreactivity (PSR sort gate)” value was “high polyreactivity”.

In the case of “QVQLVESGGGLVQAGGSLRLSCAASGSIFDHYVMGWYRQSPGKERELVAAITSGDRTNYADSVKGRFTISRDNAKNTVYLQMNSLKPEDTAVYYCNADYQSYFYYTTWYYEYDYWGQGTQVTVSS”, the “polyreactivity (PSR sort gate)” value is reported as “low polyreactivity”.

With “QVQLVESGGGLVQAGGSLRLSCAASGSIFDINAMGWYRPAPGKERELVADIRGGDSTNYADSVKGRFTISRDNATNTVYLQMNSLKPEDTAVYYSAARWRRSKYGVYPQRPYDYWGQGTQVTVSS” the “polyreactivity (PSR sort gate)” value was “high polyreactivity”.

For “QVQLVESGGGLVQAGGSLRLSCAASGSIFDINVMGWYRQAPGKERELVAAITSGGRTNYADSVKGRFTISRDNAKNTVYLQMNSLKPEDTAVYYCAAVRHRQTYPKYNYWGQGTQVTVSS”, the “polyreactivity (PSR sort gate)” value was “high polyreactivity”.

In the case of “QVQLVESGGGLVQAGGSLRLSCAASGSIFDIYAKGRSRQAPGKERELVAAISSGGSTTYADSVKGRFTISRDNAKNTVYFQMNCLTPEDTAVYYCATAYTPFAYLVTEMDYWGQGTQVTVLS”, the “polyreactivity (PSR sort gate)” value is reported as “low polyreactivity”.

For “QVQLVESGGGLVQAGGSLRLSCAASGSIFDIYCMGWYRHAPGKERELVASISGGAGSTNYADSVKGRFTISRDNAKNTVYLQMNSLKPEDTAVYYCAAEVYVPDYFQHKFDVEYEYWGQGTQVTVSS”, the “polyreactivity (PSR sort gate)” value was “low polyreactivity”.

For “QVQLVESGGGLVQAGGSLRLSCAASGSIFDLYAMGWYRQAPGKERELVAAISSGATTNYADSVKGRFTISRDNAKNTVYLQMNSLKPEDTAVYYCAKYYRISSLYVIVSAYVYWGQGTQVTVSS”, the “polyreactivity (PSR sort gate)” value was “low polyreactivity”.

With “QVQLVESGGGLVQAGGSLRLSCAASGSIFDNYAMGCYRQAPRKERELVAAINFSDGDTYYGDSVKGRFTISRDNAKNTVYLQMNSLKPEDTAVYYCAAEVWYPPEYYDEYDYWGQGTQVTVSS” the “polyreactivity (PSR sort gate)” value was “low polyreactivity”.

For “QVQLVESGGGLVQAGGSLRLSCAASGSIFDPYAMGWYRQAPGKERELVAAINGGSGSTFYADSVKGRFTISRDNAKNTVNLQMNSLKPEDTAVYYCAAKIWRYSPSYYPEPRGDYWGQGTQVTVSS”, the “polyreactivity (PSR sort gate)” value was “low polyreactivity”.

With “QVQLVESGGGLVQAGGSLRLSCAASGSIFDPYAMGWYRQAPGKERELVAAITASGSSTYYADSVKGRFTISRDNAKNTVYLQMNSLIPEDTAVYYCAADRANWEYLLSCLGYDYWGQGTQVTVSS” the “polyreactivity (PSR sort gate)” value was “low polyreactivity”.

With “QVQLVESGGGLVQAGGSLRLSCAASGSIFDRYAMGWYRQAPGKERELVAAITGSGGSTYYADSVKGRFTISRDNAKNTVYLQMNSLKPEDTAVYYCNARARGAYVRYGYWGQGTQVTVSS” the “polyreactivity (PSR sort gate)” value was “high polyreactivity”.

In the case of “QVQLVESGGGLVQAGGSLRLSCAASGSIFDSNAKGWYRQAPGKERELVAAITGSGSTNYADSVKGRFTFSRDNAKNTVYLQMNSLKPEDTAVYYCNAQAPYTEFDYWGQGTQVTVSS”, the “polyreactivity (PSR sort gate)” value is reported as “low polyreactivity”.

With “QVQLVESGGGLVQAGGSLRLSCAASGSIFDSNAMGWYRQAPGKERELVAAIDDSGATTYYADSVKGRFTISPDNAKNTVYLQLNSLKPEDTAVYYCAAETYTGSLAYYREYYYWGQGTQVTVSS” the “polyreactivity (PSR sort gate)” value was “low polyreactivity”.

For “QVQLVESGGGLVQAGGSLRLSCAASGSIFDSNNMVWYRQAPGKERELVAGISTGGSTNYADSVKGRFTISRDNAKNTVYLQMNSLKPEDTAVYYCNADLGSSYDWGQGTQVTVSS”, the “polyreactivity (PSR sort gate)” value was “low polyreactivity”.

With “QVQLVESGGGLVQAGGSLRLSCAASGSIFDSYAMGWYRQAPGKERELVASISRRGGTTYYADSVKGRFTISRDNAKNTGYLQMNSLKPEDTAVYYCAKVGSLYQPSRYDYWGQGTQVTVTS” the “polyreactivity (PSR sort gate)” value was “high polyreactivity”.

With “QVQLVESGGGLVQAGGSLRLSCAASGSIFDTYAMGWYRQAPGKEREVVAAITWSGSSTYYADSVKGRFTISRDNAKNTVYLQMNSLKPEDTAVYYCAAEVSGKYFLFDYWGQGTQVTVSS” the “polyreactivity (PSR sort gate)” value was “high polyreactivity”.

For “QVQLVESGGGLVQAGGSLRLSCAASGSIFDVNAMGWYRQAPGKERELVAAISDSGGSTFYADSVKGRFTISRDNAKNTVYLQMNTLKPEDTGVYYCNTEDFFNVPEMDSWGQGTQVTVSS”, the “polyreactivity (PSR sort gate)” value was “low polyreactivity”.

In the case of “QVQLVESGGGLVQAGGSLRLSCAASGSIFDVYAMGWYRQAPGKERELVAAINGGGSTYYADSVKGRFTISRDNAKNTVYLQMNSLKPEDTAVYYCAADRYYYAYRYYPSGYWGQGTQVTVSS”, the “polyreactivity (PSR sort gate)” value is reported as “low polyreactivity”.

In the case of “QVQLVESGGGLVQAGGSLRLSCAASGSIFDVYAMGWYRQAPGKERELVAAIRTRGGSTYYADSVKGRFTISRDNAKNTVYLQMNSLKPEDTAVYYCAAGGETVIPWFDDYYWGQGTQVTVSS”, the “polyreactivity (PSR sort gate)” value is reported as “low polyreactivity”.

In the case of “QVQLVESGGGLVQAGGSLRLSCAASGSIFDVYAMGWYRQAPGKERELVAGISRSGGSTYYADSVKGRFTISRDNAKNTVYLQMNSLKPEDTAVYYCAARYTYYRGRYDYWGQGTQVTVSS”, the “polyreactivity (PSR sort gate)” value is reported as “low polyreactivity”.

In the case of “QVQLVESGGGLVQAGGSLRLSCAASGSIFDVYAMGWYRQAPGKERELVATISNSAGSTYYADSVKGRFTISRDNAKKTVYLQMNSLKPEDTAVYYCAAVVLYFEEYDYWGQGTQVTVSS”, the “polyreactivity (PSR sort gate)” value is reported as “low polyreactivity”.

With “QVQLVESGGGLVQAGGSLRLSCAASGSIFDVYAMGWYRQAPGKERELVATMSNSAGSTYYADSVKGRFTISRDNAKYTVYLQMNSLKPEDTAVYYCAAVVVYFDEYDYWGQGTQVTVSS” the “polyreactivity (PSR sort gate)” value was “low polyreactivity”.

In the case of “QVQLVESGGGLVQAGGSLRLSCAASGSIFDVYTMGWDREAPGKERELVAAINTGGGSTYYADSVKGRFTISRDNAKNTVYLQMNSLKPEDTAVYYCAASVYHYGPLYYWGQGTQVTVSS”, the “polyreactivity (PSR sort gate)” value is reported as “low polyreactivity”.

In the case of “QVQLVESGGGLVQAGGSLRLSCAASGSIFDWYDMGWYRQAPRKEGELVAAISSGDSSYYADSVKGRFTISRDNAKNTVYFQIISLKPEDTAVYFCAAVTKLSGIRYNYWGQGTQLTVSS”, the “polyreactivity (PSR sort gate)” value is reported as “low polyreactivity”.

For “QVQLVESGGGLVQAGGSLRLSCAASGSIFDYNAMGWYREAAGKEREFVASITYSGGSTNYADSVKGRFTISRDNAKNTVYLQMNSLKPEDTAVYYCSKTIGIVWIYYPGARYEDWGQGTQVTVSS”, the “polyreactivity (PSR sort gate)” value was “low polyreactivity”.

For “QVQLVESGGGLVQAGGSLRLSCAASGSIFDYNAMGWYRQATGKERELVAAISSDGSTYYADSVKGRFTISRDNAKNSVYLQMNSLKPEDTAVYYCAADSVYSWSDYWGQGTQVTVSS”, the “polyreactivity (PSR sort gate)” value was “low polyreactivity”.

In the case of “QVQLVESGGGLVQAGGSLRLSCAASGSIFDYNCMGWYRQAPGKESELVATITLSTARTYYADSVKGRFTISRDNAKNTVYLQMNRLKPEDTAVYYCATRYPKFRRRNYWGQGTQVTVSS”, the “polyreactivity (PSR sort gate)” value is reported as “high polyreactivity”.

With “QVQLVESGGGLVQAGGSLRLSCAASGSIFDYYTMGWYRQAPGKERELVASITQSGGSTYYADSVKGRFTISRDNAKNTVYLQMNSLIPEDTAVYYCAADFSIVKMDYWGQGTQVTVSS” the “polyreactivity (PSR sort gate)” value was “low polyreactivity”.

With “QVQLVESGGGLVQAGGSLRLSCAASGSIFEAYAMGWYRQAPGKERELVAAITQSGGSTYYADSVKGRFTISRDNAKNTVYLQMNSLKPEDTAVYYCAADFKYRGPSGDYDYWGQGTQVTVSS” the “polyreactivity (PSR sort gate)” value was “low polyreactivity”.

In the case of “QVQLVESGGGLVQAGGSLRLSCAASGSIFEENAMGWYRQAPGKERELVAAITIGGRTNYADSVKGRFTISRDNAKNTVYLQMNSLKPEDTAVYYCAADLSSNKFWRFWTRYYYWGQGTQVTVSS”, the “polyreactivity (PSR sort gate)” value is reported as “low polyreactivity”.

In the case of “QVQLVESGGGLVQAGGSLRLSCAASGSIFEGNAMGWSRQAPGKERELVAAITGRGGSTYYADSVKGRFTISRDNAKNTVYLQMNSLKPEDTAVYYCAARVRRLSSIIYYYWGQGTQVTVSS”, the “polyreactivity (PSR sort gate)” value is reported as “high polyreactivity”.

For “QVQLVESGGGLVQAGGSLRLSCAASGSIFEGNAMGWYRQAPGKERELVAAISRRGGRTYYADSVKGRFTISRDNAKNTVYLQMNSLKPEDTAVYYCNALYFRDGRYQTYSDKFDYWGQGTQVTVSS”, the “polyreactivity (PSR sort gate)” value was “high polyreactivity”.

For “QVQLVESGGGLVQAGGSLRLSCAASGSIFEHNSMGWYSQAPGKERELGAAITISGGGTYYADSVKGRFTISRDNAKNTVYLQMNSLKPEDTAVYYCNRDKPGLVFTSYNYSSSYDYWGPGTQVTVSS”, the “polyreactivity (PSR sort gate)” value was “low polyreactivity”.

For “QVQLVESGGGLVQAGGSLRLSCAASGSIFEKNAMGWYRQEPGKEWELFAAISSSGGRTNYADSVKGRFTISRDNAKNTVYLHMNSLKPEDTAVYYCAAYRRGHRYTGYEYWGQGTQVTVSS”, the “polyreactivity (PSR sort gate)” value was “high polyreactivity”.

For “QVQLVESGGGLVQAGGSLRLSCAASGSIFEKYAMGWYRQAPGKERELVAAISRGTNTKYADSVKGRFTISRDNAKNTVYLQMNSLKPEDTAVYNGAARYNTYRTRIYSMDYWGQGTQVTVSS”, the “polyreactivity (PSR sort gate)” value was “high polyreactivity”.

In the case of “QVQLVESGGGLVQAGGSLRLSCAASGSIFELNAMGWYRQAPGKERELVAAITSSGSSTYYADSVKGRFTISRDNAKNTVYLQMNSLKPEDTAVYYCFRPHDYWGQGTQVTVTS”, the “polyreactivity (PSR sort gate)” value is reported as “low polyreactivity”.

For “QVQLVESGGGLVQAGGSLRLSCAASGSIFEPNAMGWYRQAPGKERELVASITSGGTTYADSVKGRFTISRDNAKNTVYLQMNSLKPEDTAVYYCNARVKAFFDPSQYLYGHDYWGQGTQVTVSS”, the “polyreactivity (PSR sort gate)” value was “low polyreactivity”.

In the case of “QVQLVESGGGLVQAGGSLRLSCAASGSIFEPYAMGWYRQAPGKERELVAAISSGTSTYYADSVKGRFTISRDNAKNTVYLQLNSLKPEDTAVYYCAAEEQIPWTNNAKYYYWGQGTQVTVSS”, the “polyreactivity (PSR sort gate)” value is reported as “low polyreactivity”.

In the case of “QVQLVESGGGLVQAGGSLRLSCAASGSIFESNAMGWYRQAPGKEREFVAAIDQNDGSTNYADSVKGRFTISRDNAKNTVYLQMNSLKPEDTAVYYCAKYWGYLGYYEFDYWGQGTQVTVSS”, the “polyreactivity (PSR sort gate)” value is reported as “low polyreactivity”.

For “QVQLVESGGGLVQAGGSLRLSCAASGSIFESNGMGWYRPAPGKERELVASISNGDITYYADSVKGRFTISRDNAKNTVYLQMISVKPEYTAVYYCAATLYRNYVIFRYDYWGQGTQLTVSS”, the “polyreactivity (PSR sort gate)” value was “low polyreactivity”.

In the case of “QVQLVESGGGLVQAGGSLRLSCAASGSIFEVYAMGWYRQAPGKERELVAAIDYSDGTTYYADSVKGRFTISRDNAKNTVYLQMNSLKPEDTAGYYCAADFPGQHYDYWGQGTQVTVSS”, the “polyreactivity (PSR sort gate)” value is reported as “low polyreactivity”.
